Experimental data published in US20070093443A1 (CATALYST BIOSCIENCES, published 2007).

Experiments:
M84R ecotin = target: T1, M84R ecotin (UniProt P23827 21-162); assay: active site titration of purified CB155 with M84R ecotin, residual Ac-RQAR-AMC activity
T1 construct: Position 84 is probably counted on mature ecotin, not on the precursor entry; also called ecotin M84R
Protocol: The purified protein was assayed for specific activity, purity, and endotoxin levels. The specific activity or amount of active protease in each prep was determined by active site titration by incubation with an inhibitor that binds in the active site of the functional protease at varying concentrations followed by addition to a fluorogenic substrate for measurement of substrate proteolysis. The amount of active enzyme was calculated from a plot of the residual protease activity against the inhibitor concentration where the intercept corresponds to the concentration of active protease. […] Enzyme activity was monitored at 30° C. in the presence of 40 μM Ac-RQAR-AMC in assay buffer containing 50 mM Tris pH 8.0, 50 mM NaCl, and 0.01% Tween-20 (for trypsin activity, 10 mM CaCl2 was added) on a Gemini XPS spectrafluorimeter (Excitation: 380 nm; Emission: 450 nm; Cut-off: 435 mn). Purity of the protein preparation was assessed by resolution of the protein product on SDS-PAGE followed by staining with Coomassie Blue. […] The level of endotoxin in each prep was determined by Liumlus Amebocyte Lysate Chromo-LAL assay (Associated of Cape Cod) according to the manufacturer's protocol with the following modifications. […]

Complement C2 (human) = target: T2, Complement C2 (human) (human, UniProt P06681 21-752); assay: cell-based or functional assay
T2 sequence: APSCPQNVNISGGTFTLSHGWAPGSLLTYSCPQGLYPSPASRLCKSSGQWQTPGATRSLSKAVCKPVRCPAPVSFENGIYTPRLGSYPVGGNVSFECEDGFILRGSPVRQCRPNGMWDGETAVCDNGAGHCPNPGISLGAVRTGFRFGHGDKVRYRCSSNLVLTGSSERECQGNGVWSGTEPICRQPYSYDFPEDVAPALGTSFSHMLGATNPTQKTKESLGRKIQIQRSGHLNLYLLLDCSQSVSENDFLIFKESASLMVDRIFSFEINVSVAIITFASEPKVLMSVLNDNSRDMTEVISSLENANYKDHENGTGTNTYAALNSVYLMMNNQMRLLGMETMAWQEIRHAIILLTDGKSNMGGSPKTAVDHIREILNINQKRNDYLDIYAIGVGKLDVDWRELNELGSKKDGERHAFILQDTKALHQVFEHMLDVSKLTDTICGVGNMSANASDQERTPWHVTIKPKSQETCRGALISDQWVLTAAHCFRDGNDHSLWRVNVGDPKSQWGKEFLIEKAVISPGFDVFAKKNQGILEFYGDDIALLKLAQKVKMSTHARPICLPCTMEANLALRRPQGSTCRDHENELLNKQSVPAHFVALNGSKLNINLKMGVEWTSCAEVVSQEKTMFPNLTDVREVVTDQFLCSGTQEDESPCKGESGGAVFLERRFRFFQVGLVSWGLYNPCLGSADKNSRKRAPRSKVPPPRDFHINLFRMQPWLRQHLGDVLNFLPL

[1] = target: T3, alpha-2 macroglobulin (in human plasma) (human, UniProt P01023 24-1474); assay: Ac-RQAR-AMC activity of protease after 5 min in human citrated plasma, with and without M84R ecotin
T3 construct: Not purified: the endogenous protein of the plasma
T3 sequence (looked up): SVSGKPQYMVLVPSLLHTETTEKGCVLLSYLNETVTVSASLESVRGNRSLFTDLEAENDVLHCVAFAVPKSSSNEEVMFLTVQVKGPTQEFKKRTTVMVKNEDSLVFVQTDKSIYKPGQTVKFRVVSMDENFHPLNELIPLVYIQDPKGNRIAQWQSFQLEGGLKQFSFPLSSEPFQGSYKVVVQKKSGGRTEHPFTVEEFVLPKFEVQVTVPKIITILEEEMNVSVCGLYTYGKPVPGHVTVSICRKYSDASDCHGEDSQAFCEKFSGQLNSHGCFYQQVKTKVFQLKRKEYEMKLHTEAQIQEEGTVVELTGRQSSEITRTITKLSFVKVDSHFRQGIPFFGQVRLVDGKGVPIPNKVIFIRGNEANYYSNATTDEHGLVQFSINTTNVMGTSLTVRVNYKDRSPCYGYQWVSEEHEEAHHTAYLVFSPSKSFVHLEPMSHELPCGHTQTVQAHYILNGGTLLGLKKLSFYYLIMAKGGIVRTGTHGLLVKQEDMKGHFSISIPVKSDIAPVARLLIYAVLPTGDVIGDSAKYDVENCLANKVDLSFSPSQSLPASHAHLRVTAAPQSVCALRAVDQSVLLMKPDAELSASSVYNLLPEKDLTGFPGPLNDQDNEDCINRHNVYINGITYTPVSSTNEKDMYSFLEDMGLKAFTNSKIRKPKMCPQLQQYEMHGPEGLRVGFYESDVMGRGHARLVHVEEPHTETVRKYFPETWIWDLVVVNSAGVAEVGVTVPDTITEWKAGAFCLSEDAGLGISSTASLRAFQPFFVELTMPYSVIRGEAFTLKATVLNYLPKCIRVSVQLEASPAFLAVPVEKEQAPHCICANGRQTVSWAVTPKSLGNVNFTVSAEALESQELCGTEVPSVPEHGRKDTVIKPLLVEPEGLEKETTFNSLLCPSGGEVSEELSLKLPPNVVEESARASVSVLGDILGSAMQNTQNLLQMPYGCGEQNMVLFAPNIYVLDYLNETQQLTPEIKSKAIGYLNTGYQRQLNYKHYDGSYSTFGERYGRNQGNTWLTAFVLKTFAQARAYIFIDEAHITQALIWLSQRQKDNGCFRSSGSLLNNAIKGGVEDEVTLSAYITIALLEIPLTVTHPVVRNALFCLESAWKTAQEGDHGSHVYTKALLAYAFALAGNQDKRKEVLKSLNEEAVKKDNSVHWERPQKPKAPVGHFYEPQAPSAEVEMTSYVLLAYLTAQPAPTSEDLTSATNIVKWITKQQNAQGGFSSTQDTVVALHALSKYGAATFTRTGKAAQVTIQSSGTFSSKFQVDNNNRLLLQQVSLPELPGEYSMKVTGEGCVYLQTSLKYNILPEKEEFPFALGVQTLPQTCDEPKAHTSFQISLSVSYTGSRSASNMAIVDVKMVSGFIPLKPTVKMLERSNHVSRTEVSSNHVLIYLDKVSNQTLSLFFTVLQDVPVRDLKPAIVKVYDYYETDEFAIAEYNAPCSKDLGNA
Protocol: In addition, the percent protease unbound by alpha-2 macroglobulin (a2M) also was determined. Inactivation of a protease by alpha-2 macroglobulin traps the protease in a complex where it is still able to turn over small fluorescent substrates, but unable to access large protein substrates. This property of alpha-2 macroglobulin complicates the assessment of a proteases activity in plasma. To determine the actual activity of the free, uncomplexed protease in plasma, a two step measurement is required. First, the sample's activity on fluorescent substrates is measured. […] The percent unbound by alpha-2 macroglobulin activity is the percentage of the plasma residual activity that is inhibited by the addition of the ecotin. Briefly, in a 0.2 mL PCR tube, 1 μL 10× protease was mixed with 9 μL human plasma in citrate (Innovative Research). A uninhibted control also was prepeared containing 1 μL 10× protease mixed with 9 μL PBST. The mixtures were incubated for 5 minutes at 37° C. The samples were diluted 250 fold in PBST and stored on ice. Two 50 μL aliquots for each sample were transferred to an opaque assay plate (Costar #3694) containing 2 μL PBST or 2 μL 520 nM M84R ecotin. The plates were incubated 10 minutes at room temperature. Five microliters 0.4 mM Ac-RQAR-AMC substrate was added and the fluorescence was measured over time with a SpectraMax M5 spectrafluorometer (Molecular Devices) set to read every 20 seconds for 30 minutes at 30° C. (Ex: 380 nm, EM: 450 nm, Cut-off: 435 nm). The percent unbound by alpha-2 macroglobulin was calculated with the following formula: (1-([(Protease in plasma/Protease in PBST)−(Protease in plasma+ecotin/Protease in PBST)]/(Protease in plasma/Protease in PBST)))*100.

binding result (M84R ecotin)	IC50 based on gel densitometry of C2 cleavage products (purified C2) (Complement C2 (human))	IC50 of the proteases for cleavage of C2 (Western blot densitometry, 5% human plasma, 1 h 37 C) (Complement C2 (human))	% Unbound by a2M [1]	Binder	IC50 for hemolysis in C2 depleted serum supplemented with protease-treated C2 (Complement C2 (human))
binds	2.2 nM	18.4 nM	–	modified MT-SP1 CB155 (Y146D/K224F) protease domain (enzyme) VVGGTDADEGEWPWQVSLHALGQGHICGASLISPNWLVSAAHCYIDDRGFRYSDPTQWTAFLGLHDQSQRSAPGVQERRLKRIISHPFFNDFTFDYDIALLELEKPAEYSSMVRPICLPDASHVFPAGKAIWVTGWGHTQDGGTGALILQKGEIRVINQTTCENLLPQQITPRMMCVGFLSGGVDSCQGDSGGPLSSVEADGRIFQAGVVSWGDGCAQRNFPGVYTRLPLFRDWIKENTGV	17 nM
–	–	–	0%	modified MT-SP1 CB490 (I41T/Y146E/G151L/Q175D/K224R) protease domain (enzyme) VVGGTDADEGEWPWQVSLHALGQGHTCGASLISPNWLVSAAHCYIDDRGFRYSDPTQWTAFLGLHDQSQRSAPGVQERRLKRIISHPFFNDFTFDYDIALLELEKPAEYSSMVRPICLPDASHVFPAGKAIWVTGWGHTQEGGTLALILQKGEIRVINQTTCENLLPQDITPRMMCVGFLSGGVDSCQGDSGGPLSSVEADGRIFQAGVVSWGDGCAQRNRPGVYTRLPLFRDWIKENTGV	–
